± gives the uncertainty stated by the source.

This series in a line: amyloid nucleation score (Sup35N fusion, yeast selection) (log enrichment); library NNK2; higher = more nucleation; inactive = no reads after selection. The essentials:
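Output and input plasmid inserts were sequenced by Illumina after psi-negative yeast carrying Sup35N fused to peptides of 20 random codons had been induced 24 hours with 100 μM copper sulfate and grown 7 days at 30°C on medium lacking adenine and uracil. The nucleation score is the DiMSum log enrichment of output over input reads, centred on the mode score of non-aggregating sequences. Sequences with under 100 input reads were excluded.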
For NLMCTACILDQWRHCKLVWN, the amyloid nucleation score worked out at 4.15 ± 0.091.
With AYMKYHAIRLNARFCGS the figure was 3.53 ± 0.075; with FFYLRFAQWQLCRTFNAQGM, -0.184 ± 1.1.
Next, AFFKR: 0.182 ± 0.38.
With EEWYHADVSCVHRKIPNATR the figure was 0.644 ± 0.81; with FWRSMTYVRF, -0.526 ± 0.36.
In turn, TRCKGHYVWSLQSFRCSIVK came in with an amyloid nucleation score of -0.512 ± 0.78.
With LGRQWFRIARGG the figure was 0.654 ± 0.32.
Next, AGPSCL: 0.537 ± 0.22; YVYWWTYERMVSWSIYCVNT: 2.96 ± 0.097.
For RAVLFAVVKQM, the amyloid nucleation score worked out at 0.874 ± 0.42.
With VSACQSESVSNVFDR the figure was -0.152 ± 0.56; with NVFLRPSFRGVHK, 2.05 ± 0.092.
With WKQLSSWIAIDSLRARKTLS the figure was -0.405 ± 0.42.
With FVSMNAGVYVGHRGHIMEFI the entry was “inactive”; with KPEVRVEMQCNYVAWYTDMI, -0.61 ± 0.37.
In the case of KRTWFERLWSSSNRVLGCLC, the amyloid nucleation score turned out to be 4.27 ± 0.051.
With RRGGDKVIISEHV the figure was -0.757 ± 0.45; with NFVILLCKQN, 5.2 ± 0.053.
With NLIESWTVYCIGLGG the entry was “inactive”.
With NSSVCVRNRCGVWIDLKGII the figure was 5.06 ± 0.095; with VMYMASSLHYTEEPSTSIMT, -0.243 ± 0.27.
Consider SSPGSCIMSENWVNSSWRFT, for which the amyloid nucleation score result is “inactive”.
With NWSNLEWWL the figure was 0.054 ± 0.77.
Next, TDVTYRNVVVSSRKFSGNRN: 8.149 ± 0.073; SRFLCVKTTVVALI: 4.66 ± 0.047.
With VTVNFSANARLCRLGLLNVC the figure was -0.222 ± 0.34; with GGNSQMFRLSLGDTKCSGSY, -1.06 ± 1.1; with VVERKLVMHYGMEMYTVHDG, 0.971 ± 0.51.
Substance ISLRMKEHVICSLVPFMSQI had an amyloid nucleation score of 0.664 ± 0.22.
With SKPWKYNRFYLESSEWSSFC the figure was 1.47 ± 0.3; with CCWRSNSRNTNVIPNLSLFR, 3.94 ± 0.04; with RSSLMYARIHCGEVRRNFLC, 0.177 ± 0.62.
Next, EVVNWSR: -0.367 ± 0.35.
In turn, WCHVSLMYRGYLKSGARDGN registered an amyloid nucleation score of 0.199 ± 0.43.
With VPSFRYCTSYQTATSLR, the amyloid nucleation score is 0.17 ± 0.33.
With NSWASPTVVFIRPVHMLLVL the figure was 0.158 ± 0.25; with MGLRCWKIIMWNYSRKLHQC, 0.031 ± 0.45.
With IGFYFLNRRKIFLASTGILM the entry was “inactive”; with TLCLMVVFKSRYCSFRIHMM, 0.21 ± 1; with NTNAHVRMVDLVSGCASQWL, 1.75 ± 0.3.
With RALVSRCRVCADKSPASSCD the figure was -0.411 ± 0.45; with EGRCNYTGHMFCRYLCKHYT, -0.088 ± 1.1.
The substance CMKMSWFRTRSTYSIEALHS had an amyloid nucleation score of 0.037 ± 0.41.
LLAFHCGHQMCFGVINMSTG had an amyloid nucleation score of 3.83 ± 0.065.
Next, KGIYIFRHLCGMDVNMGPMD: -0.764 ± 0.64; VSEQSMQCGVKFRHGTPSMV: 0.607 ± 0.38; EGNRNEVSFYVMFSAVPSGL: 9.221 ± 0.059.
With VNKQNPGVYFLHRGFFVLSR the figure was -1.57 ± 0.78; with ASMVSVSVDEFGGFLPSCVS, -0.55 ± 0.46.
Next, HSYLKLVGLCKNSKRFNHNF: “inactive”.
Take FSFRLYMEFLWGI: the amyloid nucleation score result is “inactive”.
The substance SLLESLVAMLVGVQRVVDSR displayed an amyloid nucleation score of 1.03 ± 0.51.
Next, GFVYQVIITIRHVCSLKRNR: 0.76 ± 0.16.
With YKETFGIA the figure was -1.36 ± 0.49; with YAFIILISCFLTDDSTIGVY, -0.24 ± 0.55.

For the origin of these results see the supplement of paper PMC12042874.
